The test concerns the target human DNAJB6, cytosolic isoform B (human) (UniProt O75190). The test can be described thus: native gel or EMSA + other: negative stain electron microscopy; DNAJB6 oligomers fractionated by GraFix (5-30% sucrose, 0-0.2% glutaraldehyde gradient, 20 mM NaPO4, 150 mM NaCl, pH 8.0, 4 °C); fraction 5 analysed by blue native-PAGE and negative stain EM with single particle reconstruction.

Sequence of human DNAJB6, cytosolic isoform B, O75190-2 1-241 (natural protein; other documents disagree on this pair) (O75190 other isoform, or with tags, fused parts or gaps): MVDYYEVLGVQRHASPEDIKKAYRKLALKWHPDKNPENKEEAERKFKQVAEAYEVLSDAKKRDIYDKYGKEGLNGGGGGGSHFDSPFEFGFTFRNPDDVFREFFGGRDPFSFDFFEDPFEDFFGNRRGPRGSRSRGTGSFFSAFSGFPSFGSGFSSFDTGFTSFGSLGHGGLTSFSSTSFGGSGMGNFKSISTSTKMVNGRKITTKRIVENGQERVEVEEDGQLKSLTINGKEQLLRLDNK

Consider “human DNAJB6, cytosolic isoform B, O75190-2 1-241 (natural protein; other documents disagree on this pair)”, for which the stoichiometry N worked out at 20 subunits.

Source of the values: article PMC5979959.
